In patent publication US7141656:

Legend:
[1] = target: membrane-bound single-chain I-A^d-OVA (SCT1 gene, with the alpha chain transmembrane domain) on transfected NS-0 cells (mouse (I-A^d); chicken (OVA peptide)); test: flow cytometry, FITC-conjugated AMS 32.1 1:100, T2 (SCT1-transfectant) cells
[2] = target: membrane-bound single-chain I-A^d-OVA (SCT1 gene, with the alpha chain transmembrane domain) on transfected NS-0 cells (mouse (I-A^d); chicken (OVA peptide)); test: flow cytometry, FITC-conjugated AMS 32.1 1:100, T6 (SCT1-transfectant) cells
[3] = target: membrane-bound single-chain I-A^d-OVA (SCT1 gene, with the alpha chain transmembrane domain) on transfected NS-0 cells (mouse (I-A^d); chicken (OVA peptide)); test: flow cytometry, FITC-conjugated AMS 32.1 1:100, T12 (SCT1-transfectant) cells
[4] = target: soluble single-chain I-A^d-OVA (SSC1 gene; 6xHis tag), produced in SF9 insect cells (mouse (I-A^d); chicken (OVA peptide)); test: sandwich I-A^d ELISA, M5/114 capture, biotinylated AMS-32.1 probe; supernatant of virus clone C6
[5] = target: soluble single-chain I-A^d-OVA (SSC1 gene; 6xHis tag), produced in SF9 insect cells (mouse (I-A^d); chicken (OVA peptide)); test: sandwich I-A^d ELISA, M5/114 capture, biotinylated AMS-32.1 probe; supernatant of virus clone F8
[6] = target: soluble single-chain I-A^d-OVA (SSC1 gene; 6xHis tag), produced in SF9 insect cells (mouse (I-A^d); chicken (OVA peptide)); test: sandwich I-A^d ELISA, M5/114 capture, biotinylated AMS-32.1 probe, 405 nm; cotransfection supernatant undiluted
[7] = target: soluble single-chain I-A^d-OVA (SSC1 gene; 6xHis tag), produced in SF9 insect cells (mouse (I-A^d); chicken (OVA peptide)); test: sandwich I-A^d ELISA, M5/114 capture, biotinylated AMS-32.1 probe, 405 nm; cotransfection supernatant diluted 1:2
[8] = target: soluble single-chain I-A^d-OVA (SSC1 gene; 6xHis tag), produced in SF9 insect cells (mouse (I-A^d); chicken (OVA peptide)); test: sandwich I-A^d ELISA, M5/114 capture, biotinylated AMS-32.1 probe, 405 nm; cotransfection supernatant diluted 1:4
[9] = target: soluble single-chain I-A^d-OVA (SSC1 gene; 6xHis tag), produced in SF9 insect cells (mouse (I-A^d); chicken (OVA peptide)); test: sandwich I-A^d ELISA, M5/114 capture, biotinylated AMS-32.1 probe, 405 nm; cotransfection supernatant diluted 1:8
[10] = target: Neuron Specific Enolase (NSE), in supernatant of SF9 cells infected with a recombinant Baculovirus; test: sandwich I-A^d ELISA, M5/114 capture, biotinylated AMS-32.1 probe; supernatant of SF9 cells infected with NSE Baculovirus
[11] = target: soluble single-chain I-A^d-OVA with EE antibody tag (SCE1 gene), secreted by transfected NSO cells (mouse (I-A^d); chicken (OVA peptide)); test: sandwich I-A^d ELISA of Example 18 (M5/114 capture, biotinylated AMS-32.1 probe); undiluted supernatant of E10 (SCE1 transfectant)
[12] = target: soluble single-chain I-A^d-OVA with EE antibody tag (SCE1 gene), secreted by transfected NSO cells (mouse (I-A^d); chicken (OVA peptide)); test: sandwich I-A^d ELISA of Example 18 (M5/114 capture, biotinylated AMS-32.1 probe); undiluted supernatant of E11 (SCE1 transfectant)
[13] = target: soluble single-chain I-A^d-OVA (SSC1 gene; 6xHis tag), produced in SF9 insect cells (mouse (I-A^d); chicken (OVA peptide)); test: sandwich I-A^d ELISA of Example 18 (M5/114 capture, biotinylated AMS-32.1 probe); sc I-A^d-OVA from insect cell culture (positive control)
[14] = target: membrane-bound single-chain I-A^d-OVA (SCT1 gene, with the alpha chain transmembrane domain) on transfected NS-0 cells (mouse (I-A^d); chicken (OVA peptide)); test: flow cytometry, FITC-conjugated 10-3.6 1:100 (negative control), T2 (SCT1-transfectant) cells
[15] = target: membrane-bound single-chain I-A^d-OVA (SCT1 gene, with the alpha chain transmembrane domain) on transfected NS-0 cells (mouse (I-A^d); chicken (OVA peptide)); test: flow cytometry, FITC-conjugated 10-3.6 1:100 (negative control), T6 (SCT1-transfectant) cells
[16] = target: membrane-bound single-chain I-A^d-OVA (SCT1 gene, with the alpha chain transmembrane domain) on transfected NS-0 cells (mouse (I-A^d); chicken (OVA peptide)); test: flow cytometry, FITC-conjugated 10-3.6 1:100 (negative control), T12 (SCT1-transfectant) cells
[17] = target: full-length murine I-A^d/OVA 323-339 MHC class II fusion complex (pJRS165.1) expressed on NSO cells (mouse; chicken) (UniProt P04228); test: flow cytometry, FITC-conjugated isotype matched irrelevant antibody 1:100, clone NSO/IA^d/OVA.A4
[18] = target: full-length murine I-A^d/OVA 323-339 MHC class II fusion complex (pJRS165.1) expressed on NSO cells (mouse; chicken) (UniProt P04228); test: flow cytometry, FITC-conjugated isotype matched irrelevant antibody 1:100, clone NSO/IA^d/OVA.B2
[19] = target: full-length murine I-A^d/OVA 323-339 MHC class II fusion complex (pJRS165.1) expressed on NSO cells (mouse; chicken) (UniProt P04228); test: flow cytometry, FITC-conjugated isotype matched irrelevant antibody 1:100, clone NSO/IA^d/OVA.B4
[20] = target: full-length murine I-A^d/OVA 323-339 MHC class II fusion complex (pJRS165.1) expressed on NSO cells (mouse; chicken) (UniProt P04228); test: flow cytometry, FITC-conjugated isotype matched irrelevant antibody 1:100, clone NSO/IA^d/OVA.B5
[21] = target: murine class II MHC molecule I-A^d on A20.1-11 cells (mouse) (UniProt P04228); test: flow cytometry, FITC-conjugated isotype matched irrelevant antibody 1:100, A20.1 cells (+ control)
[22] = target: T cell receptor of the murine T cell hybridoma DO11.10 (specific for OVA 323-339 in the context of I-A^d) (mouse); test: cell-based or functional assay

## AMS-32.1 anti-IA^d monoclonal antibody (PharMingen)
[1]
  Mean Fluorescence: 613
[2]
  Mean Fluorescence: 418
[3]
  Mean Fluorescence: 911
[4]
  Absorbance: 1.56
[5]
  Absorbance: 1.45
[6]
  Absorbance: 0.857
[7]
  Absorbance: 0.524
[8]
  Absorbance: 0.305
[9]
  Absorbance: 0.165
[10]
  Absorbance: 0.098
[11]
  Absorbance: 0.781
[12]
  Absorbance: 0.96
[13]
  Absorbance: 2.44

## 10-3.6 anti-I-A^k antibody (PharMingen), isotype matched negative control
[14]
  Mean Fluorescence: 22
[15]
  Mean Fluorescence: 45.1
[16]
  Mean Fluorescence: 45.9

## FITC-conjugated anti-IA^k antibody (Pharmingen), isotype matched irrelevant antibody, Example 13
[17]
  peak channel fluorescence: 34
[18]
  peak channel fluorescence: 14
[19]
  peak channel fluorescence: 11
[20]
  peak channel fluorescence: 10
[21]
  peak channel fluorescence: 5

B1: soluble single-chain I-A^d-OVA (SSC1 gene; 6xHis tag), produced in SF9 insect cells (peptide-MHC)
chain: TMALQIPSLLLSAAVVVLMVLSSPRTLSISQAVHAAHAEINEAGRASGGGGSGGGGNSERHFVVQFKGECYYTNGTQRIRLVTRYIYNREEYVRYDSDVGEYRAVTELGRPDAEYWNSQPEILERTRAEVDTACRHNYEGPETSTSLRRLEQPNVAISLSRTEALNHHNTLVCSVTDFYPAKIKVRWFRNGQEETVGVSSTQLIRNGDWTFQVLVMLEMTPHQGEVYTCHVEHPSLKSPITVEWTSGGGGSGGGGSGGGGSGGGGSSSEDDIEADHVGFYGTTVYQSPGDIGQYTHEFDGDELFYVDLDKKKTVWRLPEFGQLILFEPQGGLQNIAAEKHNLGILTKRSNFTPATNEAPQATVFPKSPVLLGQPNTLICFVDNIFPPVINITWLRNSKSVTDGVYETSFLVNRDHSFHKLSYLTFIPSDDDIYDCKVEHWGLEEPVLKHWSRASHHHHHH
[22]
  IL-2 concentration in DO11 super (U/ml) at 39 ng/well immobilized scIA^d-OVA, extended dilution: 0 U/ml
  IL-2 concentration in DO11 super (U/ml) at 78 ng/well immobilized sc IA^d-OVA: 45 U/ml
  IL-2 concentration in DO11 super (U/ml) at 78 ng/well immobilized scIA^d-OVA, extended dilution: 17 U/ml
  IL-2 concentration in DO11 super (U/ml) at 156 ng/well immobilized sc IA^d-OVA: 100 U/ml
  IL-2 concentration in DO11 super (U/ml) at 156 ng/well immobilized scIA^d-OVA, extended dilution: 24 U/ml
  IL-2 concentration in DO11 super (U/ml) at 312 ng/well immobilized sc IA^d-OVA: 109 U/ml
  IL-2 concentration in DO11 super (U/ml) at 312 ng/well immobilized scIA^d-OVA, extended dilution: 35 U/ml
  IL-2 concentration in DO11 super (U/ml) at 625 ng/well immobilized sc IA^d-OVA: 116 U/ml
  IL-2 concentration in DO11 super (U/ml) at 625 ng/well immobilized scIA^d-OVA, extended dilution: 38 U/ml
  IL-2 concentration in DO11 super (U/ml) at 1250 ng/well immobilized sc IA^d-OVA: 126 U/ml
  IL-2 concentration in DO11 super (U/ml) at 2500 ng/well immobilized sc IA^d-OVA: 143 U/ml
  IL-4 concentration in DO11 super (U/ml) at 78 ng/well immobilized sc IA^d-OVA: 7 U/ml
  IL-4 concentration in DO11 super (U/ml) at 156 ng/well immobilized sc IA^d-OVA: 10 U/ml
  IL-4 concentration in DO11 super (U/ml) at 312 ng/well immobilized sc IA^d-OVA: 16 U/ml
  IL-4 concentration in DO11 super (U/ml) at 625 ng/well immobilized sc IA^d-OVA: 15 U/ml
  IL-4 concentration in DO11 super (U/ml) at 1250 ng/well immobilized sc IA^d-OVA: 20 U/ml
  IL-4 concentration in DO11 super (U/ml) at 2500 ng/well immobilized sc IA^d-OVA: 23 U/ml
  IL-r [IL-4] concentration in DO11 super (U/ml) at 39 ng/well immobilized scIA^d-OVA, extended dilution: 0 U/ml
  IL-r [IL-4] concentration in DO11 super (U/ml) at 78 ng/well immobilized scIA^d-OVA, extended dilution: 0.8 U/ml
  IL-r [IL-4] concentration in DO11 super (U/ml) at 156 ng/well immobilized scIA^d-OVA, extended dilution: 0.9 U/ml
  IL-r [IL-4] concentration in DO11 super (U/ml) at 312 ng/well immobilized scIA^d-OVA, extended dilution: 1.5 U/ml
  IL-r [IL-4] concentration in DO11 super (U/ml) at 625 ng/well immobilized scIA^d-OVA, extended dilution: 2 U/ml

B2: membrane-bound single-chain I-A^d-OVA (SCT1 gene, with the alpha chain transmembrane domain) on transfected NS-0 cells (peptide-MHC)
chain: TMALQIPSLLLSAAVVVLMVLSSPRTLSISQAVHAAHAEINEAGRASGGGGSGGGGNSERHFVVQFKGECYYTNGTQRIRLVTRYIYNREEYVRYDSDVGEYRAVTELGRPDAEYWNSQPEILERTRAEVDTACRHNYEGPETSTSLRRLEQPNVAISLSRTEALNHHNTLVCSVTDFYPAKIKVRWFRNGQEETVGVSSTQLIRNGDWTFQVLVMLEMTPHQGEVYTCHVEHPSLKSPITVEWTSGGGGSGGGGSGGGGSGGGGSSSEDDIEADHVGFYGTTVYQSPGDIGQYTHEFDGDELFYVDLDKKKTVWRLPEFGQLILFEPQGGLQNIAAEKHNLGILTKRSNFTPATNEAPQATVFPKSPVLLGQPNTLICFVDNIFPPVINITWLRNSKSVTDGVYETSFLVNRDHSFHKLSYLTFIPSDDDIYDCKVEHWGLEEPVLKHWEPEIPAPMSELTETVVCALGLSVGLVGIVVGTIFIIQGLRSGGTSRHPGPL
[22]
  IL-2 ELISA result (Absorbance), DO11.10 with T2 (SCT1 transfectant) cells: 0.758
  IL-2 ELISA result (Absorbance), DO11.10 with T6 (SCT1 transfectant) cells: 0.307
  IL-2 ELISA result (Absorbance), DO11.10 with T12 (SCT1 transfectant) cells: 1.03
